Consider two molecules from article PMC7529148 (Nature structural & molecular biology, 2020).

Usually stoichiometry N stands for a count of units in the complex or per binding partner.

The labels stand for the following.
B2: ClpA (enzyme, E. coli, UniProt P0ABH9 1-758, looked up)
chain: MLNQELELSLNMAFARAREHRHEFMTVEHLLLALLSNPSAREALEACSVDLVALRQELEAFIEQTTPVLPASEEERDTQPTLSFQRVLQRAVFHVQSSGRNEVTGANVLVAIFSEQESQAAYLLRKHEVSRLDVVNFISHGTRKDEPTQSSDPGSQPNSEEQAGGEERMENFTTNLNQLARVGGIDPLIGREKELERAIQVLCRRRKNNPLLVGESGVGKTAIAEGLAWRIVQGDVPEVMADCTIYSLDIGSLLAGTKYRGDFEKRFKALLKQLEQDTNSILFIDEIHTIIGAGAASGGQVDAANLIKPLLSSGKIRVIGSTTYQEFSNIFEKDRALARRFQKIDITEPSIEETVQIINGLKPKYEAHHDVRYTAKAVRAAVELAVKYINDRHLPDKAIDVIDEAGARARLMPVSKRKKTVNVADIESVVARIARIPEKSVSQSDRDTLKNLGDRLKMLVFGQDKAIEALTEAIKMARAGLGHEHKPVGSFLFAGPTGVGKTEVTVQLSKALGIELLRFDMSEYMERHTVSRLIGAPPGYVGFDQGGLLTDAVIKHPHAVLLLDEIEKAHPDVFNILLQVMDNGTLTDNNGRKADFRNVVLVMTTNAGVRETERKSIGLIHQDNSTDAMEEIKKIFTPEFRNRLDNIIWFDHLSTDVIHQVVDKFIVELQVQLDQKGVSLEVSQEARNWLAEKGYDRAMGARPMARVIQDNLKKPLANELLFGSLVDGGQVTVALDKEKNELTYGFQSAQKHKAEAAH

The data set “ClpA” concerns the target B2. The data set is described as follows: cryo-EM structure.
The data set “cryo-EM structure” concerns the molecule itself. Description: cryo-EM structure.

B1: ClpP (enzyme)
chain: not shown
B1: the binding result with ClpA is on record as “binds”. In addition, in “cryo-EM structure”, the “stoichiometry N” value came to 14.

In the case of B2, the “stoichiometry N” value in “cryo-EM structure” amounted to 6.
